This note sets out measurements from the supplement of paper PMC9112550, “Optimization of the antimicrobial peptide Bac7 by deep mutational scanning” (BMC Biology, 2022).

The test system of the series is Escherichia coli TOP10. The experiment in a line: shrunken log2 fold change of peptide-encoding DNA abundance (4.5 h post-induction vs induction); higher = less antimicrobial activity (less host growth inhibition). The settings on record: time post-induction: 4.5 h; library: site-saturation at positions 5, 18, 19, 20.
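Further: peptides expressed intracellularly from a pBAD plasmid library in pooled LB shake-flask culture, induced with 0.3% L-arabinose, DNA abundance read by NGS, three biological replicates, DESeq2 with apeglm shrinkage.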

As to RRIRCRPPRLPRPRPRPPKWPRP, the “shrunken log2 fold change” value came out at 0.447. On to RRIRNRPPRLPRPRPRPVSIPRP, for which the “shrunken log2 fold change” value was -0.0773. On to RRIRLRPPRLPRPRPRPEWIPRP, for which the “shrunken log2 fold change” value worked out at 0.00477.

Consider RRIRQRPPRLPRPRPRPPDLPRP, for which the “shrunken log2 fold change” value came to 0.404. The result for RRIRPRPPRLPRPRPRPHWVPRP reads -0.137; that for RRIRVRPPRLPRPRPRPWDIPRP, -0.235; that for RRIRPRPPRLPRPRPRPFNLPRP, -0.771. In the case of RRIRMRPPRLPRPRPRPRPLPRP, the “shrunken log2 fold change” value worked out at 1.17. For the sequence RRIRNRPPRLPRPRPRPTFWPRP, the “shrunken log2 fold change” value stood at 0.323. Take RRIRCRPPRLPRPRPRPLKEPRP: the “shrunken log2 fold change” value was 0.244. The result for RRIRIRPPRLPRPRPRPRSMPRP reads -0.695. Take RRIRVRPPRLPRPRPRPVLLPRP: the “shrunken log2 fold change” value was -0.35. The result for RRIRFRPPRLPRPRPRPSHMPRP reads -0.255; that for RRIRYRPPRLPRPRPRPMGFPRP, -0.179. The result for RRIRDRPPRLPRPRPRPIPDPRP reads -0.0185. The figure for RRIRRRPPRLPRPRPRPIRNPRP is 0.113. With RRIRRRPPRLPRPRPRPRMEPRP, the “shrunken log2 fold change” value turned out to be 0.0167. Turning to RRIRCRPPRLPRPRPRPMPEPRP, the “shrunken log2 fold change” value was determined as 0.122. The result for RRIRSRPPRLPRPRPRPFWWPRP reads 0.309. Consider RRIRYRPPRLPRPRPRPVEKPRP, for which the “shrunken log2 fold change” value is -0.129.

As to RRIRMRPPRLPRPRPRPAYMPRP, the “shrunken log2 fold change” value is -0.0929.

RRIRMRPPRLPRPRPRPFHPPRP: the “shrunken log2 fold change” value is -0.0444.

Consider RRIRIRPPRLPRPRPRPRFFPRP, for which the “shrunken log2 fold change” value is -0.123. In the case of RRIRNRPPRLPRPRPRPHNRPRP, the “shrunken log2 fold change” value was determined as 0.0237. For the sequence RRIRMRPPRLPRPRPRPYIRPRP, the “shrunken log2 fold change” value is -0.13. For RRIRERPPRLPRPRPRPPYHPRP, the “shrunken log2 fold change” value is -0.456. The result for RRIRNRPPRLPRPRPRPCQQPRP reads -0.0105; that for RRIRGRPPRLPRPRPRPIHMPRP, -0.0548. The result for RRIRWRPPRLPRPRPRPHTSPRP reads -0.672; that for RRIRDRPPRLPRPRPRPVVVPRP, 0.328.

Turning to RRIRHRPPRLPRPRPRPMDEPRP, the “shrunken log2 fold change” value was -0.204. The result for RRIRRRPPRLPRPRPRPCIDPRP reads -0.211; that for RRIRTRPPRLPRPRPRPYIMPRP, -0.753; that for RRIRVRPPRLPRPRPRPWYYPRP, 0.0171. The figure for RRIRFRPPRLPRPRPRPGNGPRP is 0.228. Take RRIRTRPPRLPRPRPRPYQKPRP: the “shrunken log2 fold change” value is -0.197. On to RRIRERPPRLPRPRPRPFRFPRP, for which the “shrunken log2 fold change” value is -0.185. The figure for RRIRKRPPRLPRPRPRPQFVPRP is -0.0281; for RRIRNRPPRLPRPRPRPRYHPRP it is -0.438. Take RRIRDRPPRLPRPRPRPDCTPRP: the “shrunken log2 fold change” value was determined as 0.185. Turning to RRIRHRPPRLPRPRPRPADCPRP, the “shrunken log2 fold change” value is -0.395. The result for RRIRRRPPRLPRPRPRPKRIPRP reads 0.191. With RRIRYRPPRLPRPRPRPAYGPRP, the “shrunken log2 fold change” value was found to be 3.33.

Turning to RRIRKRPPRLPRPRPRPKRSPRP, the “shrunken log2 fold change” value stood at 0.667.

Take RRIRWRPPRLPRPRPRPVDHPRP: the “shrunken log2 fold change” value was found to be 0.0245. The figure for RRIRTRPPRLPRPRPRPKPMPRP is 0.0287; for RRIRHRPPRLPRPRPRPIMNPRP it is -1.05.

Turning to RRIRCRPPRLPRPRPRPQWRPRP, the “shrunken log2 fold change” value is 0.274.

For RRIRARPPRLPRPRPRPKVLPRP, the “shrunken log2 fold change” value came to 0.269. RRIRCRPPRLPRPRPRPRCSPRP: the “shrunken log2 fold change” value was -0.0164.

On to RRIRFRPPRLPRPRPRPIPDPRP, for which the “shrunken log2 fold change” value was -0.215. With RRIRGRPPRLPRPRPRPKQEPRP, the “shrunken log2 fold change” value was found to be 0.0916. The figure for RRIRDRPPRLPRPRPRPYYWPRP is -0.184; for RRIRVRPPRLPRPRPRPLDYPRP it is -0.244; for RRIRMRPPRLPRPRPRPIYSPRP it is -0.0833. Consider RRIRSRPPRLPRPRPRPSDRPRP, for which the “shrunken log2 fold change” value was -0.254. The figure for RRIRIRPPRLPRPRPRPGTNPRP is -0.314. The figure for RRIRNRPPRLPRPRPRPTLDPRP is 0.221; for RRIRGRPPRLPRPRPRPDRPPRP it is 0.376. For the sequence RRIRNRPPRLPRPRPRPQSTPRP, the “shrunken log2 fold change” value is -0.548. The figure for RRIRIRPPRLPRPRPRPIDAPRP is -0.215; for RRIRPRPPRLPRPRPRPDSQPRP it is -0.127. The result for RRIRCRPPRLPRPRPRPHQVPRP reads -0.288; that for RRIRGRPPRLPRPRPRPTTAPRP, 1.31. The figure for RRIRQRPPRLPRPRPRPMFEPRP is 0.118.

RRIRERPPRLPRPRPRPPQEPRP: the “shrunken log2 fold change” value came to 0.192. The result for RRIRARPPRLPRPRPRPNQEPRP reads -0.000902; that for RRIRCRPPRLPRPRPRPLRCPRP, 0.198.

On to RRIRYRPPRLPRPRPRPHLCPRP, for which the “shrunken log2 fold change” value was -0.0639.

Consider RRIRGRPPRLPRPRPRPVVWPRP, for which the “shrunken log2 fold change” value came to 1.26. The result for RRIRDRPPRLPRPRPRPYWNPRP reads -0.602; that for RRIRPRPPRLPRPRPRPLWPPRP, 0.325.

For the sequence RRIRWRPPRLPRPRPRPWTKPRP, the “shrunken log2 fold change” value is -0.0653.

For the sequence RRIRRRPPRLPRPRPRPNNKPRP, the “shrunken log2 fold change” value is -0.24.

With RRIRQRPPRLPRPRPRPQASPRP, the “shrunken log2 fold change” value is 0.0433. The result for RRIRSRPPRLPRPRPRPNWCPRP reads 0.0144; that for RRIRKRPPRLPRPRPRPNQNPRP, 1.18; that for RRIRERPPRLPRPRPRPKIEPRP, -0.151. With RRIRHRPPRLPRPRPRPVGMPRP, the “shrunken log2 fold change” value is -0.63. On to RRIRPRPPRLPRPRPRPWIMPRP, for which the “shrunken log2 fold change” value is -0.236. With RRIRHRPPRLPRPRPRPLTHPRP, the “shrunken log2 fold change” value was -1.14. The result for RRIRSRPPRLPRPRPRPAPNPRP reads 0.329; that for RRIRFRPPRLPRPRPRPHWCPRP, -0.262; that for RRIRERPPRLPRPRPRPIFPPRP, -0.367. The figure for RRIRKRPPRLPRPRPRPANMPRP is -0.167; for RRIRPRPPRLPRPRPRPYVQPRP it is -0.147. The result for RRIRSRPPRLPRPRPRPWPSPRP reads 0.117; that for RRIRERPPRLPRPRPRPLWYPRP, -0.287; that for RRIRRRPPRLPRPRPRPPEAPRP, 0.493. Regarding RRIRLRPPRLPRPRPRPAPRPRP, the “shrunken log2 fold change” value came to 0.816.

With RRIRCRPPRLPRPRPRPMPFPRP, the “shrunken log2 fold change” value was -0.0545.

Take RRIRARPPRLPRPRPRPIQCPRP: the “shrunken log2 fold change” value was 0.00559. For RRIRDRPPRLPRPRPRPKTVPRP, the “shrunken log2 fold change” value is 0.271. Turning to RRIRWRPPRLPRPRPRPFIWPRP, the “shrunken log2 fold change” value worked out at 0.205. On to RRIRDRPPRLPRPRPRPMVIPRP, for which the “shrunken log2 fold change” value was determined as 0.0392. Regarding RRIRMRPPRLPRPRPRPSDIPRP, the “shrunken log2 fold change” value is -0.192. As for RRIRDRPPRLPRPRPRPVHHPRP, the “shrunken log2 fold change” value is 0.0594. As to RRIRQRPPRLPRPRPRPIMAPRP, the “shrunken log2 fold change” value is -0.0123. The result for RRIRQRPPRLPRPRPRPINHPRP reads 0.147; that for RRIRMRPPRLPRPRPRPDDDPRP, -0.00152.

On to RRIRGRPPRLPRPRPRPGAAPRP, for which the “shrunken log2 fold change” value was determined as 1.43.

RRIRERPPRLPRPRPRPPSCPRP: the “shrunken log2 fold change” value was 0.103. The figure for RRIRDRPPRLPRPRPRPFDLPRP is -0.312. The result for RRIRLRPPRLPRPRPRPMSDPRP reads 0.0343; that for RRIRGRPPRLPRPRPRPYCNPRP, -0.411; that for RRIRCRPPRLPRPRPRPNRIPRP, -0.111. RRIRKRPPRLPRPRPRPQGGPRP: the “shrunken log2 fold change” value was found to be 0.0321. On to RRIRDRPPRLPRPRPRPCAHPRP, for which the “shrunken log2 fold change” value worked out at 0.07.

With RRIRTRPPRLPRPRPRPMAWPRP, the “shrunken log2 fold change” value came to 0.114.

For RRIRRRPPRLPRPRPRPIFAPRP, the “shrunken log2 fold change” value amounted to 0.355.

With RRIRCRPPRLPRPRPRPMAIPRP, the “shrunken log2 fold change” value was -0.132.

Regarding RRIRWRPPRLPRPRPRPVTMPRP, the “shrunken log2 fold change” value was -0.0519.

As for RRIRRRPPRLPRPRPRPIRTPRP, the “shrunken log2 fold change” value is 0.4.

Turning to RRIRIRPPRLPRPRPRPGYWPRP, the “shrunken log2 fold change” value is -0.0497. The figure for RRIRSRPPRLPRPRPRPVTSPRP is -0.132. The result for RRIRFRPPRLPRPRPRPAREPRP reads 0.612; that for RRIRLRPPRLPRPRPRPTRRPRP, 0.298.

Consider RRIRSRPPRLPRPRPRPLARPRP, for which the “shrunken log2 fold change” value came out at 0.0314. As to RRIRVRPPRLPRPRPRPPIQPRP, the “shrunken log2 fold change” value was -0.245. In the case of RRIRDRPPRLPRPRPRPRGAPRP, the “shrunken log2 fold change” value is 0.772. The result for RRIRHRPPRLPRPRPRPAHIPRP reads -0.0784; that for RRIRSRPPRLPRPRPRPMIIPRP, -0.182. Regarding RRIRKRPPRLPRPRPRPWQAPRP, the “shrunken log2 fold change” value turned out to be 0.000778. The figure for RRIRCRPPRLPRPRPRPWPEPRP is -0.15.

On to RRIRDRPPRLPRPRPRPRPVPRP, for which the “shrunken log2 fold change” value was determined as 0.466.
